The target of one assay is T1, FZD1 CRD (Homo sapiens, UniProt Q9UP38).
T1 construct: D112-P238; GPI anchor signal (C); expressed in transfected cells; host or cells: CHO cells, lentiviral pLenti-puro
As to the kind of experiment: Immunofluorescence of anti-FZD5 Fab binding to CHO cells overexpressing Frizzled CRD. Further details: key: −: no binding; +: very weak binder; ++: weak binder; +++: good binder; ++++: very good binder. In outline:
(§1)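 CHO lines each stably expressing one human Frizzled CRD as a myc-tagged, GPI-anchored cell-surface cassette (FZD_CRD-MYC-GPI, lentiviral pLenti-puro) were probed with anti-FZD5 Fabs. Binding was read by immunofluorescence, alongside flow cytometry, across the 10-member panel.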

Another assay has as its target T2, FZD4 CRD (Homo sapiens, UniProt Q9ULV1).
T2 construct: E42-V167; GPI anchor signal (C); expressed in transfected cells; host or cells: CHO cells, lentiviral pLenti-puro
T2 sequence (Q9ULV1 42-167): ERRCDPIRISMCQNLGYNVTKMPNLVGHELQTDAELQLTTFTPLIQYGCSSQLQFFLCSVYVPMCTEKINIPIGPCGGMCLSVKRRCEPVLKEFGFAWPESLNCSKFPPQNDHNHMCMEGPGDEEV
The assay is described as above. Further details: key: −: no binding; +: very weak binder; ++: weak binder; +++: good binder; ++++: very good binder. In outline: as §1

A further assay concerns the target T3, FZD8 CRD (Homo sapiens, UniProt Q9H461).
T3 construct: K31-D155; GPI anchor signal (C); expressed in transfected cells; host or cells: CHO cells, lentiviral pLenti-puro
T3 sequence (Q9H461 31-155): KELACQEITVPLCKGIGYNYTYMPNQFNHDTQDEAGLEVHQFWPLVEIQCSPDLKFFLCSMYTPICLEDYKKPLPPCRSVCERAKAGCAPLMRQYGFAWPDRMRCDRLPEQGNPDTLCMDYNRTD
Described as above. Further details: key: −: no binding; +: very weak binder; ++: weak binder; +++: good binder; ++++: very good binder. An outline of the steps: as §1

A further assay deals with T4, FZD9 CRD (Homo sapiens, UniProt O00144).
T4 construct: G35-A161; GPI anchor signal (C); expressed in transfected cells; host or cells: CHO cells, lentiviral pLenti-puro
T4 sequence (O00144 35-161): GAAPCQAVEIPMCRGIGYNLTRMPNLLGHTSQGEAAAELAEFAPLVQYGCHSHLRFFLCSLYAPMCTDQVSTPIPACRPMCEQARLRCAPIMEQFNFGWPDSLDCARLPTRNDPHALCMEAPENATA
The assay is described as above. Also on record: key: −: no binding; +: very weak binder; ++: weak binder; +++: good binder; ++++: very good binder. In outline:
as §1

In another assay the target is T5, FZD5 CRD (Homo sapiens, UniProt Q13467).
T5 construct: K29-T156; GPI anchor signal (C); expressed in transfected cells; host or cells: CHO cells, lentiviral pLenti-puro
T5 sequence (Q13467 29-156): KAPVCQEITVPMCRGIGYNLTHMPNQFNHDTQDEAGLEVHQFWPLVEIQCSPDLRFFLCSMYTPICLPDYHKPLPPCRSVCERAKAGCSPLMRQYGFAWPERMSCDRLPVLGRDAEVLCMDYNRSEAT
The description is as above. Further details: key: −: no binding; +: very weak binder; ++: weak binder; +++: good binder; ++++: very good binder. An outline of the steps:
as §1

In the next assay the target is T6, FZD3 CRD (Homo sapiens, UniProt Q9NPG1).
T6 construct: CRD of FZD1, FZD2, FZD3, FZD4, FZD5, FZD6, FZD7, FZD8, FZD9 or FZD10; GPI anchor signal (C); expressed in transfected cells; host or cells: CHO cells, lentiviral pLenti-puro
T6 sequence (Q9NPG1 23-136 limits assumed): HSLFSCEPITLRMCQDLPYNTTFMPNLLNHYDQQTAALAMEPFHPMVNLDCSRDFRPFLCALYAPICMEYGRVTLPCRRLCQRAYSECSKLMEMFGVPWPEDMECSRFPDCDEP
The assay is described as above. Further details: key: −: no binding; +: very weak binder; ++: weak binder; +++: good binder; ++++: very good binder. In outline: as §1

A further assay concerns the target T7, FZD2 CRD (Homo sapiens, UniProt Q14332).
T7 construct: D35-P161; GPI anchor signal (C); expressed in transfected cells; host or cells: CHO cells, lentiviral pLenti-puro
The assay is described as above. Also on record: key: −: no binding; +: very weak binder; ++: weak binder; +++: good binder; ++++: very good binder. An outline of the steps: as §1

Assay [1] has as its system CHO cells not expressing Frizzled CRD. As to the kind of experiment: Flow cytometry of anti-FZD5 Fab binding to CHO cells not expressing Frizzled CRD (background). The source says: The binding of anti-FZD5 Fabs to cell surface-expressed Frizzled protein was further determined for each member of the Frizzled family via flow cytometry and immunofluorescence analysis of a panel of 10 CHO cell lines, each ectopically over-expressing the extracellular cysteine-rich domain (CRD) of a different Frizzled protein family member.
In general terms: Flow cytometry measures light scatter and fluorescence of single cells or particles in a stream.

Positions count from the first letter of the chain named.

Consider 3 molecules from patent US20210253718A1, “FRIZZLED5 PROTEIN-BINDING AGENTS” (Modmab Therapeutics Corporation, priority 2016, published 2021).

B1: Fab-2912: anti-FZD5 Fab with antibody variable region Fv-2912; CDR SEQ ID NOs: 35, 36, 51, 90, 127, 164 (antibody, V domains shown)
VH: EVQLVESGGGLVQPGGSLRLSCAASGFNISYSYIHWVRQAPGKGLEWVASISSSSGYTSYADSVKGRFTISADTSKNTAYLQMNSLRAEDTAVYYCARTVRGSKKPYFSGWAMDYWGQGTLVTVSS
VL: DIQMTQSPSSLSASVGDRVTITCRASQSVSSAVAWYQQKPGKAPKLLIYSASSLYSGVPSRFSGSRSGTDFTLTISSLQPEDFATYYCQQFYFPYLITFGQGTKVEIK
Regarding B1, the “Immunofluorescence binding, Frizzled CRD overexpressed on CHO cells: FZD1” value (from here on “Immunofluorescence binding … FZD1”) with FZD1 CRD is reported as “+”. Besides, the “Immunofluorescence binding, Frizzled CRD overexpressed on CHO cells: FZD4” value (from here on “Immunofluorescence binding … FZD4”) with FZD4 CRD was “++”. In addition, the “Immunofluorescence binding, Frizzled CRD overexpressed on CHO cells: FZD8” value (from here on “Immunofluorescence binding … FZD8”) in the assay with FZD8 CRD is listed as “+”. Besides, the “Immunofluorescence binding, Frizzled CRD overexpressed on CHO cells: FZD9” value (from here on “Immunofluorescence binding … FZD9”) with FZD9 CRD is “−”. The “Immunofluorescence binding, Frizzled CRD overexpressed on CHO cells: FZD5” value (from here on “Immunofluorescence binding … FZD5”) in the assay with FZD5 CRD is on record as “+++”. Moreover, in the assay with FZD3 CRD, the “Immunofluorescence binding, Frizzled CRD overexpressed on CHO cells: FZD3” value (from here on “Immunofluorescence binding … FZD3”) is “−”. For the same molecule, the “Immunofluorescence binding, Frizzled CRD overexpressed on CHO cells: FZD2” value (from here on “Immunofluorescence binding … FZD2”) with FZD2 CRD is reported as “+++”. Moreover, in assay [1], the “Median fluorescence, Frizzled CRD overexpressed on CHO cells: None” value (from here on “Median fluorescence”) is given as 4.49.

B2: Fab-2914: anti-FZD5 Fab with antibody variable region Fv-2914; CDR SEQ ID NOs: 35, 36, 53, 92, 129, 162 (antibody, V domains shown)
VH: EVQLVESGGGLVQPGGSLRLSCAASGFNIYYSYMHWVRQAPGKGLEWVASIYPSSSSTSYADSVKGRFTISADTSKNTAYLQMNSLRAEDTAVYYCARGAMDYWGQGTLVTVSS
VL: B1 VL with F91W, F93Y, P94G, Y95S
As to B2, in the assay with FZD1 CRD, the “Immunofluorescence binding … FZD1” value is given as “++”. Further, the “Immunofluorescence binding … FZD4” value with FZD4 CRD is “−”. Also, in the assay with FZD8 CRD, the “Immunofluorescence binding … FZD8” value is reported as “++”. Moreover, in the assay with FZD9 CRD, the “Immunofluorescence binding … FZD9” value is on record as “−”. Also, in the assay with FZD5 CRD, the “Immunofluorescence binding … FZD5” value is on record as “++++”. In the assay with FZD3 CRD, the “Immunofluorescence binding … FZD3” value was “−”. Further, the “Immunofluorescence binding … FZD2” value with FZD2 CRD was “+++”. In addition, the “Median fluorescence” value in assay [1] is 4.37.

B3: Fab-2913: anti-FZD5 Fab with antibody variable region Fv-2913; CDR SEQ ID NOs: 35, 36, 52, 91, 128, 165 (antibody, V domains shown)
VH: EVQLVESGGGLVQPGGSLRLSCAASGFNISYSSIHWVRQAPGKGLEWVASIYPYSSSTSYADSVKGRFTISADTSKNTAYLQMNSLRAEDTAVYYCARYGYYGLDYWGQGTLVTVSS
VL: DIQMTQSPSSLSASVGDRVTITCRASQSVSSAVAWYQQKPGKAPKLLIYSASSLYSGVPSRFSGSRSGTDFTLTISSLQPEDFATYYCQQWGVSHYLFTFGQGTKVEIK
For B3, the “Immunofluorescence binding … FZD1” value with FZD1 CRD is “++”. In addition, the “Immunofluorescence binding … FZD4” value in the assay with FZD4 CRD is recorded as “−”. The “Immunofluorescence binding … FZD8” value in the assay with FZD8 CRD is reported as “−”. In addition, in the assay with FZD9 CRD, the “Immunofluorescence binding … FZD9” value was “−”. In addition, the “Immunofluorescence binding … FZD5” value in the assay with FZD5 CRD is “++”. In addition, in the assay with FZD3 CRD, the “Immunofluorescence binding … FZD3” value is “−”. In addition, in the assay with FZD2 CRD, the “Immunofluorescence binding … FZD2” value was “+++”. In addition, the “Median fluorescence” value in assay [1] is reported as 3.85.
